The source of these data is publication PMC4552671.

The target of the assay is Urokinase plasminogen activator surface receptor (uPAR) on metastatic KHOS osteosarcoma cells (human (endogenous in KHOS)) (UniProt Q03405).
Chain of UniProt Q03405 (Q03405 other isoform, or with tags, fused parts or gaps): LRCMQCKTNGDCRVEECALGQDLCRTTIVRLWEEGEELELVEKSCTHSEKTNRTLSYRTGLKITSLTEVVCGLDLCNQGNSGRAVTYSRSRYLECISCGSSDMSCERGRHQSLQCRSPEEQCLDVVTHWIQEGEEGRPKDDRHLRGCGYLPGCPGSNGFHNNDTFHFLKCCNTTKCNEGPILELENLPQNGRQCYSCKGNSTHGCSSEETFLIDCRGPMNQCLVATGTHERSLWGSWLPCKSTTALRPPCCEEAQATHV

The substance “recombinant human urokinase plasminogen activator (rh-uPA), high molecular weight form” gave an increase in migration of metastatic KHOS cells over basal level (Transwell, 24 h) with 0.5 and 1.0 ug/mL rh-uPA of 166%.
